According to the Human Domainome abundance scans (Beltran et al. 2025):
± gives the uncertainty stated by the source.

B1: Metastasis-associated protein MTA3, residues 265 to 317; numbered along this chain, Q9BTC8 (parent)
chain: RDEMEEWSASEASLFEEALEKYGKDFNDIRQDFLPWKSLTSIIEYYYMWKTTD
B2: POU domain, class 3, transcription factor 3, residues 320 to 388; numbered along this chain, P20264 (parent)
chain: DDLEQFAKQFKQRRIKLGFTQADVGLALGTLYGNVFSQTTICRFEALQLSFKNMCKLKPLLNKWLEEAD

Variants of: B1
Experiment: abundance fitness (aPCA) (normalised: wild type 0, dead -1); higher = more abundant; growth selection in yeast, the domain comes from the species named
Settings: Homo sapiens

Abundance fitness: each site, then its substitutions
E16: Q 0.023 ± 0.08, Y -0.185 ± 0.16, V -0.589 ± 0.079
K50: W -0.882 ± 0.26, M -0.171 ± 0.13, F -0.62 ± 0.17, P -0.472 ± 0.089, G -0.877 ± 0.18, S -0.2 ± 0.074

Variants of: B2
Experiment: as above
Settings: Homo sapiens

Abundance fitness, by site and new letter:
I15: K -0.336 ± 0.15, M -0.426 ± 0.2, E 0.058 ± 0.14, L -0.252 ± 0.059, S -0.17 ± 0.036, H -0.875 ± 0.36, F -0.249 ± 0.22, Q -0.052 ± 0.24, W -0.751 ± 0.29, G -0.778 ± 0.18, P -0.501 ± 0.15, R -0.421 ± 0.082
K16: F -0.569 ± 0.37, E -0.382 ± 0.15, D -0.102 ± 0.14, A 0.004 ± 0.16, C -0.543 ± 0.4
K8: Q -0.061 ± 0.099, F -0.439 ± 0.33, E -0.019 ± 0.14, M -0.106 ± 0.14, D -0.705 ± 0.48, V -0.424 ± 0.11, T -0.475 ± 0.24, L 0.022 ± 0.07, S -0.738 ± 0.23, H -0.306 ± 0.21, G -0.561 ± 0.14, W -0.42 ± 0.19, I 0.162 ± 0.33, A 0.001 ± 0.11
F10: V -0.885 ± 0.2, Y -0.631 ± 0.36, Q -0.698 ± 0.38, A -0.776 ± 0.24, P -0.896 ± 0.25, G -0.288 ± 0.12, K -0.365 ± 0.36, N -0.705 ± 0.48, M -0.631 ± 0.33, S -0.846 ± 0.28, R -0.543 ± 0.16, T -0.488 ± 0.17, W -0.636 ± 0.39, C -0.338 ± 0.25
Q12: G -0.636 ± 0.075, E -0.044 ± 0.13, Y -0.176 ± 0.17, A -0.1 ± 0.085, W -0.146 ± 0.15, C -0.438 ± 0.16, M -0.409 ± 0.19, F -0.654 ± 0.27, P -0.694 ± 0.21, S -0.143 ± 0.1, D -0.23 ± 0.21, I -0.594 ± 0.48, T -0.283 ± 0.11, K -0.276 ± 0.11, V -0.265 ± 0.085, R -0.124 ± 0.064, L -0.201 ± 0.07
A7: V -0.065 ± 0.068, M -0.737 ± 0.19, R -0.69 ± 0.15, Q -0.703 ± 0.23, I -0.057 ± 0.11, G -0.478 ± 0.11, T -0.069 ± 0.24, D -0.694 ± 0.27, C -0.198 ± 0.065, S 0.117 ± 0.11, P -0.722 ± 0.32, F -0.642 ± 0.2, L -0.908 ± 0.36, W -0.87 ± 0.31
L3: Q -0.421 ± 0.38, G -0.758 ± 0.18, Y -0.242 ± 0.2, W -0.587 ± 0.17, V -0.318 ± 0.11, R -0.937 ± 0.19, A -1 ± 0.32, I -0.161 ± 0.27, T -0.981 ± 0.33, P -0.755 ± 0.24, F -0.454 ± 0.49, E -0.43 ± 0.31
D1: N 0.529 ± 0.33
D2: T 0.029 ± 0.13, W -0.111 ± 0.13, K 0.034 ± 0.12, A 0.107 ± 0.16, P -0.339 ± 0.23, M -0.252 ± 0.14, Q -0.159 ± 0.13, E -0.031 ± 0.049, R -0.176 ± 0.089, S -0.119 ± 0.3, V -0.95 ± 0.5, L -0.272 ± 0.14, I -0.238 ± 0.15, G -0.224 ± 0.081
R14: F -0.829 ± 0.37, C -0.681 ± 0.23, W -0.944 ± 0.39, M -0.954 ± 0.35, T -0.939 ± 0.25, L -0.783 ± 0.08, S -0.813 ± 0.21, V -0.751 ± 0.22, A -0.823 ± 0.2, Q -0.861 ± 0.28, Y -0.764 ± 0.27, G -0.871 ± 0.25, E -0.859 ± 0.23
R13: W -0.697 ± 0.16, Y -0.651 ± 0.17, L -0.824 ± 0.16, G -0.745 ± 0.18, K -0.062 ± 0.086, Q -0.32 ± 0.098, N -0.698 ± 0.38, M -0.578 ± 0.15, P -0.865 ± 0.21, S -0.582 ± 0.15, E -0.311 ± 0.15, T -0.561 ± 0.18, H -0.263 ± 0.16, A -0.385 ± 0.11, V -0.311 ± 0.099, I -0.771 ± 0.27
Q9: Y 0.052 ± 0.12, N 0.038 ± 0.12, S -0.107 ± 0.082, R -0.222 ± 0.066, K -0.046 ± 0.071, L -0.223 ± 0.043, I -0.425 ± 0.26, G -0.205 ± 0.083, C -0.457 ± 0.12, W -0.2 ± 0.1, M 0.128 ± 0.12, V -0.231 ± 0.081, A -0.241 ± 0.1, E 0.042 ± 0.12, T 0.029 ± 0.097
K11: L -0.944 ± 0.17, G -0.926 ± 0.17, T -0.39 ± 0.16, S -0.541 ± 0.14, W -0.753 ± 0.22, Q -0.106 ± 0.14, M -0.386 ± 0.15, V -0.856 ± 0.25, R -0.087 ± 0.055, A -0.298 ± 0.14, P -0.888 ± 0.29
